Target: COVID-2019-Spike-328-585 (RBD) (SARS-CoV-2), P0DTC2
Assay: BLI; […] (HIS1K) […] (50 μM, 31 μM, and 8.8 μM); 30°C, PBS; 1:1 binding model; Octet HTX
Settings: remark: other sources report otherwise

B1: DC-SIGN.Fc, Q9NNX6 (Fc fusion)
chain: QVSKVPSSISQEQSRQDAIYQNLTQLKAAVGELSEKSKLQEIYQELTQLKAAVGELPEKSKLQEIYQELTRLKAAVGELPEKSKLQEIYQELTWLKAAVGELPEKSKMQEIYQELTRLKAAVGELPEKSKQQEIYQELTRLKAAVGELPEKSKQQEIYQELTRLKAAVGELPEKSKQQEIYQELTQLKAAVERLCHPCPWEWTFFQGNCYFMSNSQRNWHDSITACKEVGAQLVVIKSAEEQNFLQLQSSRSNRFTWMGLSDLNQEGTWQWVDGSPLLPSFKQYWNRGEPNNVGEEDCAEFSGNGWNDDKCNLAKFWICKKSAASCSRDEEQFLSPAPATPNPPPA
Kd: 18.7 µM

Source: paper PMC10331576
